Experimental findings from the nanobody polyreactivity screen of Harvey et al. (2022) are described below.

This data set is described as follows: yeast display, Sf9 membrane polyspecificity reagent, FACS + sequencing; frameworks hold sequencing errors. In outline:
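Using colony PCR, genes from sorted yeast display clones were amplified, then sequenced on MiSeq at 2 × 250 and filtered by CDR length. The clones had been stained with 10% biotinylated, detergent-solubilized Sf9 membrane reagent for 1 hour at 4 °C and sorted by FACS into low and high (top ~1%) gates on anti-HA and streptavidin fluorescence. Polyreactivity labels come from the gate of origin.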
Turning to “QVQLVESGGGLVQAGGSLRLSCAASGRIFHRNAMGWYRQAPGKERELVATIRGNGGSTYYADSVKGRFTISRDNAKNTVYLQMNSLKPEDTAVYYCALDAQGYGGWWTYSRFYSWGQGTQVTVSS”, the “polyreactivity (PSR sort gate)” value is reported as “high polyreactivity”.

On to “QVQLVESGGGLVQAGGSLRLSCAASGRIFHRYAMGWYRQAPGKEREFVAAITYSTGTTYYADSVKGRFTISRDNAKNTVYLQMNSLKPEDTAVYYCAKDSRFWHKSWFAYGYDYWGQGTQVTVSS”, for which the “polyreactivity (PSR sort gate)” value is listed as “low polyreactivity”.

With “QVQLVESGGGLVQAGGSLRLSCAASGRIFHSNTKGWYRQAPGKERELVARISSVGSTNYADSVKGRFTISRDNAKNTVYLQMNSQKPEDTAVYYCAAQRYYTQSSYYLALYDFWGQGTQVTVSS”, the “polyreactivity (PSR sort gate)” value was “low polyreactivity”. As for “QVQLVESGGGLVQAGGSLRLSCAASGRIFHWYAMGWYSQAPGKERELVAAISTDGSTYYADSVKGRFTISRDNAKNTVYLQKNSLKPEDTAVYYCAAVPGYTHLWGGPFDYGGQGTQVTVSS”, the “polyreactivity (PSR sort gate)” value is “low polyreactivity”.

Regarding “QVQLVESGGGLVQAGGSLRLSCAASGRIFHWYTMGWYRQAPGKEMELVAAISGSGGSTHYADSVKGRLTISRDNAKNTVYLQMNSLKPEDTAVYYCAAYIPVRYGTSDRGYWGQGTQVTVSS”, the “polyreactivity (PSR sort gate)” value is reported as “low polyreactivity”. The result for “QVQLVESGGGLVQAGGSLRLSCAASGRIFHYAMGWYRQAPGKERELVAGISKRGGSTYYADSVKGRFTISRDNAKNTVYLQMNSLKPEDTAVYYCAAGRAYDGTKHDYWGQGTQVTVSS” reads “high polyreactivity”; that for “QVQLVESGGGLVQAGGSLRLSCAASGRIFIAYAMGWYRKAPAKERELVAAITDDGGTNYADSVKGRFTISRDNAKNTVYLQMKSLKPEDTAVYYCAATYLIGYYYVWEYDYWGQGTQVTVSS”, “low polyreactivity”.

Turning to “QVQLVESGGGLVQAGGSLRLSCAASGRIFIAYAMGWYRQAPWKEREFVAAISSRGGSTYYADSVKGRFTISRDNAKNTVYLQMNSLKPEDTAVYYCGAWTLYWSHTTWSYDYWGQGTQVTVSS”, the “polyreactivity (PSR sort gate)” value was “low polyreactivity”. Next, “QVQLVESGGGLVQAGGSLRLSCAASGRIFIIYAMGWYRQAPGKEREFVAAITSSGGSTYYADSVKGRFTISRDNAKNTVYLQMYSLKPEDTAVYYCNKVTRYYREYHRDSQYGYWGQGTQVTVSS”: “high polyreactivity”; “QVQLVESGGGLVQAGGSLRLSCAASGRIFILNTMGWYRQAPGKERELLAGISYSGSTYYADSVKGRFTISRDNAKNTVYLQMNSLKPDDTAVYYCAADYDAAWYNDGYYYWGQGTQVTVSS”: “low polyreactivity”.

For the sequence “QVQLVESGGGLVQAGGSLRLSCAASGRIFILYAMGWYRQAPGKERELVAAITGGSTYYADSVKGRFTISRDNAKNTVYLQMNSLKPEDSAVYYCAADVRHYIWEYYYWGQGTQVTVSS”, the “polyreactivity (PSR sort gate)” value is recorded as “low polyreactivity”.

As to “QVQLVESGGGLVQAGGSLRLSCAASGRIFIPYAMGWYRQAPGKERELVAVISWNGGSTYYADSVKGRFTISRDNAKNTVYLQMNSLKPEDTAVYYCAADTYPYAKMDYWGQGTQVTVSS”, the “polyreactivity (PSR sort gate)” value is recorded as “low polyreactivity”. “QVQLVESGGGLVQAGGSLRLSCAASGRIFIRAMGCYTQAPGKERELVAGITNGGITYYADSVKGRFTISRDNAKTTVYLQMNSLKPEDTAVYSCNARSRSVLYKYDYWGQGTQETVSS”: the “polyreactivity (PSR sort gate)” value was “low polyreactivity”.

For the sequence “QVQLVESGGGLVQAGGSLRLSCAASGRIFIRNAMGWYRQAPGKERELVAAISRSGGRTYYADSVKGRFTISRDNAKNTVYLQMNSLKQEDTAVYYCARTTPYFNVDCGGYDYWGQGTQVTVSS”, the “polyreactivity (PSR sort gate)” value is on record as “high polyreactivity”.

As for “QVQLVESGGGLVQAGGSLRLSCAASGRIFIRYAMGWYRQAPGKERELVAGITSGGDTYYADSVKGRFTISRDNAKNTVYLQMNSLKPEDTAVYYCARVRYGRMDYWGQGTQVTVSS”, the “polyreactivity (PSR sort gate)” value was “high polyreactivity”. As to “QVQLVESGGGLVQAGGSLRLSCAASGRIFIVNAMGWYRQATGKERELVAAISYRGGSTYYADSVKGRFTISRDNAKNTVYLQMNRLKPEDTAVYYCAADRYSYLGYPYEYEYWGQGTQVTVSS”, the “polyreactivity (PSR sort gate)” value was “low polyreactivity”. The result for “QVQLVESGGGLVQAGGSLRLSCAASGRIFIVYAMGRYRQAPGKERELVAAISWNGGRTYYADSVKGRFTISRDNAKNTVYLQMNSLKPEDTAVYYCNAVALYPYTTYDYWGQGTQVTVSS” reads “high polyreactivity”. As for “QVQLVESGGGLVQAGGSLRLSCAASGRIFIVYAMGWYRQAPGKERELVATISWSGGSTYYADSVKGRFTISRDNAKNTVYLQMTSLKPEDTAVYYCAADYRWVDSDSSLFYWYDYWGQGTQVTVSS”, the “polyreactivity (PSR sort gate)” value is listed as “high polyreactivity”.

In the case of “QVQLVESGGGLVQAGGSLRLSCAASGRIFIWYAMGWYRQAPGKDRELVAAISTDGSPYYADSVKGRFTISRDNAKNTVYLQMNSLKPEDTAVYYCAAVPGYTHLWGGPFDYWGQGTQVTVSS”, the “polyreactivity (PSR sort gate)” value was “low polyreactivity”. Next, “QVQLVESGGGLVQAGGSLRLSCAASGRIFIYAMGWYRQAPGKERELVAAISWSGGSTYYADSVKGRFTISRDNAKNTVYLQMNSLKPEDTAVYYCAADYEGWGYDYRGDYWGQGSQVTVSS”: “low polyreactivity”; “QVQLVESGGGLVQAGGSLRLSCAASGRIFIYKAMGWYRQAPGKERELVAAISSSGTSTYYADSVKGRFTISRDNAKNTVYLQKNSLKPEDTAVYYCNAVYNYRWYSQGYYWGQGTQVTVSS”: “high polyreactivity”. “QVQLVESGGGLVQAGGSLRLSCAASGRIFIYNAMGWYRQAPGKEREFVAAISRTGGNTYYADSVKGRFTISRDNAKNTVYLQMNSLKPEDTAVYYCATKRKWTYLSYDYWGQGTQVTVSS”: the “polyreactivity (PSR sort gate)” value is listed as “low polyreactivity”. The result for “QVQLVESGGGLVQAGGSLRLSCAASGRIFIYNAMGWYRQAPGKERELVAAINRSGVSTHYADSVKGRFTISRDHAKNTVYLQMNSLKPEDTAVYYCARTVYGARSYDYWGQGTQVTVSS” reads “low polyreactivity”.

Consider “QVQLVESGGGLVQAGGSLRLSCAASGRIFIYNAMGWYTQAPGKERELVAAINRSGVSTHYADSVKGRFTISRDNAKNSVYLQMNSLKPEDTAVYYCARTVYGARSYDYWGQGTQVTVSS”, for which the “polyreactivity (PSR sort gate)” value was “low polyreactivity”. “QVQLVESGGGLVQAGGSLRLSCAASGRIFKFNAMGWYRQAPGKEMELVAATWSGGRTYYSDSVKGRFTISRDNAKYTVYLQMNCLKPEDTAVYYCNAADSSWYVLYGSYYRSGLDYWGQGTQVTVSS”: the “polyreactivity (PSR sort gate)” value is recorded as “low polyreactivity”. In the case of “QVQLVESGGGLVQAGGSLRLSCAASGRIFKGYSMGGYRQAPGTETELVASIRTGGTTNYADSVKGRFTISRDNAKNTVYLQMNSLKPEDTAVYYCNRGYYSYYGRYYYWGQGTQVTVSS”, the “polyreactivity (PSR sort gate)” value was “high polyreactivity”. Next, “QVQLVESGGGLVQAGGSLRLSCAASGRIFKINAMGWYRPAPGKERELVAGISGSGSDTYYADSVKGRFTISRDNAKNTVYLQMNSLKPEDTAVYYCAATVVQYYDRDYWGQGTQVTVSS”: “low polyreactivity”. Next, “QVQLVESGGGLVQAGGSLRLSCAASGRIFKKYAMGWYRQAPGKERELVATISSGGSTYYADSVKGRFTISRDNAKNTVYLQMNSLKPEDTAVYYCARREYVRRDYFVTTYDYWGQGTQVTVSS”: “low polyreactivity”; “QVQLVESGGGLVQAGGSLRLSCAASGRIFKLNDMGWYRQAPGKERELVAAITRGTGSTYADSVKGRFTISRDNAMNTVYLQMNSLKPEDTAVYDCATRYSYRRLSFPRPDEMEYWGQGTQVTVSS”: “low polyreactivity”. The result for “QVQLVESGGGLVQAGGSLRLSCAASGRIFKPNAMGGSRQAPGKEREFVARITRNTGSTYYADSVKGRFTISRDNAKNTVYLQMNSLKPEDTAVYYCAARFYRRNRFNYWGQGTLVTVSS” reads “high polyreactivity”; that for “QVQLVESGGGLVQAGGSLRLSCAASGRIFKQYAMGWYRQAPGKEREFVAAISSRGTRTYYADSVKGRFTISRDNAKNTVYLQMISLKPEDTAVYYCNAVQAQAAYEYWGQGTQVTVSS”, “high polyreactivity”; that for “QVQLVESGGGLVQAGGSLRLSCAASGRIFKRNAMGWYRQAPGKERELVAAISYSGGSTYYADSVKGRFTISRDNAKQTVYLQMNSLKPEDTAVYYCAVDRYPTGITKYDYWGQGTLVTVSS”, “high polyreactivity”. On to “QVQLVESGGGLVQAGGSLRLSCAASGRIFKRNAMGWYRQAPGKERELVATISGSGGSTYYADSVKGRFTISRDNAKNTVYIQMNRLQPEDTAVYYCSATGFFARLSTIYYYWGQGTQVTVTS”, for which the “polyreactivity (PSR sort gate)” value is reported as “high polyreactivity”.

On to “QVQLVESGGGLVQAGGSLRLSCAASGRIFKRYAMGWYRQAPGKERELVAAIRTSDGITYYADSVKGRFTISRDNAKNTVYLQMNSLKPEDTAVYYCNADLSKAERWGQGTQVTVSS”, for which the “polyreactivity (PSR sort gate)” value is listed as “low polyreactivity”.

As for “QVQLVESGGGLVQAGGSLRLSCAASGRIFKRYAMGWYRQAPGKERELVAAITRGGSTNYADSVKGRFTISRDNAKNSVYLQMYSLKPEYTAVYYCAATTSRPYRSRYYYWGQGTQVTVSS”, the “polyreactivity (PSR sort gate)” value is listed as “high polyreactivity”. Next, “QVQLVESGGGLVQAGGSLRLSCAASGRIFKRYTLGWYRPAPAKERELVAAITKRADRTNYADSVKGRFTISRDNAKNTVYLQMNSLKPEDTAVYDCNAEGQNDHPSNGYISYKYDYWGQGTQVTVSS”: “low polyreactivity”.

In the case of “QVQLVESGGGLVQAGGSLRLSCAASGRIFKRYVMGWYRQAPGKERELVSAISVRGASTYYADSVKGRFTISRDNAKNTVYLQMNSLKPEDTAVYYCATAGYRLLDYWGQGTQVTVSS”, the “polyreactivity (PSR sort gate)” value is listed as “high polyreactivity”. On to “QVQLVESGGGLVQAGGSLRLSCAASGRIFKSYAMGGYRHAPGKERELVAAISSGDDTYYADSVKGRFTISRDNAKNTVYLQMNSLKQEDTAVYYCAADYWGWIYLYGDYLVDYWGQGTQVTVSS”, for which the “polyreactivity (PSR sort gate)” value is “low polyreactivity”.

Consider “QVQLVESGGGLVQAGGSLRLSCAASGRIFKSYAMGWYRQAPGKERELVAAISRSGGRTYYADSVKGRFTISRDNAKNTVYLQMNSLKPEDTAVYYCAATTFVAPYLGQGTQVTVSS”, for which the “polyreactivity (PSR sort gate)” value is reported as “low polyreactivity”. Next, “QVQLVESGGGLVQAGGSLRLSCAASGRIFKSYAMGWYRQAPGKERELVAAISSGDDTYYADSVKGRFTISRDNAKNTVYLQMNSLKPEDTAVYYCAADYWGWLYLYGDYLVDYWGQGTQVTVSS”: “low polyreactivity”.
